Key:
Assay type in all cases: biochemical
[1] = PCR cycling of dCTP in the presence of PEF or Pfu DNA polymerase, HPLC; conditions: 10 mM dCTP, 1.25 U Pfu/μl
[2] = molecular target: T1, cloned Pfu DNA polymerase (Pyrococcus furiosus, UniProt P61875); assay: 6.2 kb primer-template PCR enhancing assay; conditions: protein concentrations comparable to or greater than gel-purified PEFs
T1 sequence (P61875 1-775): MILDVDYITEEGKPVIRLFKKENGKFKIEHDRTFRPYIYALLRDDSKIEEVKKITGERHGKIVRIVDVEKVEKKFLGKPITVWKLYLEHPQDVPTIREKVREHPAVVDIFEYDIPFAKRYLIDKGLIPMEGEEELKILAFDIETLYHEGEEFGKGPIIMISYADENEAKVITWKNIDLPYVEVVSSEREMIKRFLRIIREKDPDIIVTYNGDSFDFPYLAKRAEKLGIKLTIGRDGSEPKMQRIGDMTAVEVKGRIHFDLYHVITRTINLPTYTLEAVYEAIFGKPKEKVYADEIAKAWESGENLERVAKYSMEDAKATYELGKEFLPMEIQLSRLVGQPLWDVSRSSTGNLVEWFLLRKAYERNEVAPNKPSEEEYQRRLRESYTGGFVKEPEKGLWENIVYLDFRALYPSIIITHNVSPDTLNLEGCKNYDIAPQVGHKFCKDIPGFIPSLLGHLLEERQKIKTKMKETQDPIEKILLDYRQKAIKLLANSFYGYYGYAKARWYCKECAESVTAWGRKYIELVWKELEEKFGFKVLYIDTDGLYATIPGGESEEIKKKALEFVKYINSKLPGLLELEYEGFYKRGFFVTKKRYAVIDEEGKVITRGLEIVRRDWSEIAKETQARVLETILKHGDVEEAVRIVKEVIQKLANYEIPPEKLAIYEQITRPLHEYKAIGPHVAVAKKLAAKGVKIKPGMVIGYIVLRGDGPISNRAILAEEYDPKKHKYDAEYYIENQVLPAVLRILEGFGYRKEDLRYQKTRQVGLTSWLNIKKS
Procedure: One embodiment of an assay used to screen for PEFs, in this case from Pyrococcus furiosus, involved amplifying a 6.2 kb target from transgenic mouse DNA (6.2 kb primer-template assay). A master PCR cocktail was prepared consisting of: 200 μM each dNTP, 2 μg/ml primer F432-21 (5′-CTA-TTG-AGT-ACG-AAC-GCC-ATC) (SEQ ID NO.: 62), 2 μg/ml primer R6656-20 (GTC-ACG-CTT-GCT-CCA-CTC-CG) (SEQ ID NO: 63), 2.5 μg/ml λAA742 DNA (transgenic mouse DNA having 40 copies of a lambda phage DNA shuttle vector), 1× cloned Pfu DNA polymerase PCR buffer (10 mM KCl, 10 mM (NH4)2SO4, 20 mM Tris-HCl (pH 8.8), 2 mM MgSO4, 0.1% (v/v) Triton X-100, and 100 μg/ml BSA), and 25 U/ml cloned Pfu DNA polymerase. Samples were diluted in 1× cloned Pfu DNA polymerase PCR buffer, and 1 μl of each diluted sample was added to 24 μl of the PCR cocktail. PCR amplifications were conducted on the RoboCycler 96 Temperature Cycler (Stratagene), using the following conditions: 96° C. for 45 s (1 cycle)/96° C. for 45 s; 60° C. for 45 s; 72° C. for 14 min. (35 cycles)/72° C. for 10 min. (1 cycle). PCR products (10 μl/lane) are run out on 1% agarose gels and PCR product bands visualized by ethidium bromide staining. […] When PCR enhancement is due to the presence of PEFs, rather than contaminating endogenous DNA polymerase activity, amplifications performed in the absence of […] yield no PCR product. Moreover, PCR amplifications performed in the absence of exogenous DNA template should yield no PCR product when the PEF sample lacks contaminating target DNA.

[3] = test system: gapped-duplex calf thymus DNA; assay: DNA polymerase activity, gapped-duplex calf thymus DNA assay; conditions: 30 minutes at 72° C.
Procedure: Initially and as a control to confirm the activity of the DNA polymerase used, gapped-duplex calf thymus DNA (Pharmacia) assays were performed. The polymerase cocktail contained 50 mM Tris-HCl, pH 8.0, 5 mM MgCl2, 1 mM DTT, 50 μg/m BSA, 4% glycerol, 200 μM each dNTP, [^3H]TTP (0.5 mCi·μmole final concentration), and 250 μg/ml of activated calf thymus DNA (Pharmacia). Samples containing Pfu DNA polymerase or P. furiosus PEF were serially diluted in Pfu DNA polymerase storage buffer (50 mM Tris-HCl, pH 8.2, 0.1% NP-40, 0.1% Tween-20, 0.1 mM EDTA, 1 mM DTT, 50% glycerol) and then 1 μl of each dilution was added to 10 μl aliquots of polymerase cocktail. Polymerization reactions were conducted in triplicate for 30 minutes at 72° C. The extension reactions were quenched on ice, and then 5 μl aliquots were spotted immediately onto DE81 filters (Whatman). Unincorporated [^3H]TTP was removed by 6 washes with 2×SCC (0.3M NaCl, 30 mM sodium citrate, pH 7.0), followed by one wash with 100% ethanol. Incorporated radioactivity was measured by scintillation counting. The assay was calibrated by counting a known amount of [^3H]TTP on DE-81 filters, omitting the wash steps. One unit of polymerase activity is defined as the amount of enzyme which catalyzes the incorporation of 10 nmoles of total dNTP into polymeric form (binds to DE-81 paper) in 30 minutes at 72° C. […]

B1: Pfu DNA polymerase: DNA polymerase of Pyrococcus furiosus (protein, UniProt P61875 1-775, looked up)
DNA polymerase: T1 sequence (P61875 1-775)
change in dCDP, dCMP or dUTP produced when dCTP cycled with Pfu DNA polymerase [1]: no difference | PCR enhancing activity (in words) [2]: lacks PCR enhancing activity | specific activity (DNA polymerase) [3]: 2-4×10^4 u/mg

Source: US7943358B2, “Polymerase enhancing factor (PEF) extracts, PEF protein complexes, isolated PEF protein, and methods for purifying and identifying” (Agilent Technologies, Inc., priority 1997, dated 2011)
